Results: patent US20150374663A1 (UNIVERSITY OF ROCHESTER, published 2015)
Each block holds one binder with its values, some of them ahead of it. Ends that are not written are not given here.

What was measured:
[1] = molecular target: T1, type V tartrate-resistant acid phosphatase (TRAP) protein, immobilised on CM5 sensor chip; assay: SPR, TRAP amine-coupled to CM5 chip, initial rate analysis of sensorgrams
Method: Surface plasmon resonance (SPR) is used to assess the affinity of peptide-functionalized polymers for TRAP. Series S Sensor CM5 Chips are functionalized with TRAP via 1-ethyl-3-(3-dimethylaminopropyl) carbodiimide (EDC)/N-hydroxysuccinimide (NHS) chemistry. Briefly, the chips, which have a carboxymethylated dextran functionality, are activated through the introduction of NHS and EDC. After activation, TRAP protein, at 30 μg/mL in sodium acetate (pH=5), is introduced to the surface. Ethanolamine-hydrochloric acid is used to quench unreacted carboxysuccinimide groups. Polymers are dissolved in running buffer of PBS with 0.005% Tween20. Polymers are analyzed in duplicate at different concentrations. Surface regeneration is achieved using 1-10 mM NaOH solutions as necessary. […] Sensorgram data (FIG. 22) are exported from the SPR evaluation software after smoothing data of injection events and analyzed. Response units (RU) are converted into concentrations for rate analysis using the equation:
Where S is the concentration of polymer bound to the TRAP-functionalized surface and MW is the molecular weight of the polymer. The binding rates of polymers to TRAP are determined in the initial linear portion of association, within two seconds of the start of injection. […]

[2] = molecular target: T2, TRAP deposited by osteoclasts on human cortical bone wafers (human, UniProt P13686 22-325, limits assumed); assay: confocal imaging of fluorescently labeled peptide incubated overnight on human cortical bone wafers
T2 construct: The protein is native TRAP deposited on bone, not purified; also called bone wafers decorated with TRAP; resorption pits
T2 sequence (looked up): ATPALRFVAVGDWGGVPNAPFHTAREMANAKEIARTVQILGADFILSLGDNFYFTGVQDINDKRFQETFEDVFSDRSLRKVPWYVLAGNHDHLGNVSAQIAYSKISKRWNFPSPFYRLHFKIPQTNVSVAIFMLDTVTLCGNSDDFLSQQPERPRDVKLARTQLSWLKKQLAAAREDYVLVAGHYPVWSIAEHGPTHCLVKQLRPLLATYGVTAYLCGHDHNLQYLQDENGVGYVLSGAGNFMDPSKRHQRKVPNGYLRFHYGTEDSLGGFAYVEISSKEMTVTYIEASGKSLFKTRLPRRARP
Method: Equal concentrations of fluorescently labeled TBP and SCP are prepared in 1× phosphate-buffered saline (PBS). Bone wafers are cut from cortical bone obtained from the femur of a human donor cadaver and incubated in peptide solutions overnight, washed twice with 1×PBS, and then visualized via confocal imaging. Stacked sections are compressed into 2D images to allow for qualitative analysis as in FIG. 3A through FIG. 3D.

[3] = molecular target: T1, type V tartrate-resistant acid …; assay: SPR, TRAP-functionalized surface, binding curve fit
Method: Quantitative analyses of peptide and polymer affinities were performed using SPR. […] The binding of any molecules to the surface of the sensor chips results in a change in the angle of incident light reflection, allowing highly-sensitive detection of miniscule amounts of ligand binding to the surface. Target affinity can be determined by introduction of increasing concentrations of the molecule to the surface (FIG. 38A and FIG. 38B). […] The binding response is measured and plotted against concentration, allowing for a fitting of the data by a binding curve. From this fitting, values such as the dissociation constant (KD) value can be determined. Through this technique, the affinity of peptides and peptide-functionalized polymers were analyzed.

[4] = molecular target: T1, type V tartrate-resistant acid …; assay: SPR, TRAP-functionalized surface, binding curve fit (n = 2, Ave. ± StDev)
[5] = molecular target: T1, type V tartrate-resistant acid …; assay: SPR, TRAP amine-coupled to CM5 chip, steady-state response vs concentration fit
Method: Surface plasmon resonance (SPR) is used to assess the affinity of peptides for TRAP. Series S Sensor CM5 Chips are functionalized with TRAP via 1-ethyl-3-(3-dimethylaminopropyl) carbodiimide (EDC)/N-hydroxysuccinimide (NHS) chemistry. Briefly, the chips, which have a carboxymethylated dextran functionality, are activated through the introduction of NHS and EDC. After activation, TRAP protein, at 30 μg/mL in sodium acetate (pH=5), is introduced to the surface. Ethanolamine-hydrochloric acid is used to quench unreacted carboxysuccinimide groups. Peptides are dissolved in running buffer of PBS with 0.005% Tween20. Peptides are analyzed in duplicate at different concentrations. Surface regeneration is achieved using a combination of 1 and 2 M NaCl and 1-50 mM NaOH solutions as necessary.
Target affinity can be determined by introducing increasing concentrations of the ligand to the surface. […] The binding response was measured and plotted against concentration (FIG. 4), allowing for a fitting of the data by a binding curve. From this fitting, values such as KD can be determined.

Kd [1]: 60 µM
B1: 10% TBP-functionalized PEG polymer (pTBP) of Table 4, M:CTA:I 300:1:0.1, Mn 40.1 kDa (other)
peptide: TPLSYLKGLVTVG-OH
modifications: not fully specified (N-terminus); also: copolymerized by RAFT with PEG methyl ether methacrylate (300 Da), ~9 peptides per chain, fluorescently labelled for bone-targeting studies, position not given here
notes: Random copolymer; Footnote e says it was used for the in vitro and in vivo bone-targeting studies, where it was fluorescently labeled; also called 10% TBP-functionalized polymer

binding result [2]: no binding
B2: scrambled control peptide (SCP), VPVGTLSYLKLTG (peptide)
peptide: VPVGTLSYLKLTG-OH
modifications: not fully specified; also: fluorescent cadaverine label in bone wafer experiment, position not given here
notes: In the bone wafer experiment it carried a fluorescent cadaverine label; also called scrambled peptide

Kd [3]: ~700 µM | Kd [4]: 795 µM | Kd [5]: ~200 µM
B3: TRAP-binding peptide (TBP), TPLSYLKGLVTVG (peptide)
peptide: TPLSYLKGLVTVG-OH
modifications: also: fluorescent cadaverine label in bone wafer experiment, position not given here
notes: also called TRAP peptide
